One experiment concerns the target HLA-A*24 (human). Description: UV peptide exchange ELISA. A general note: In an ELISA, binding on a coated surface is turned into a signal by an enzyme label.
As for KYVKDFHKF, the peptide exchange yield is > 75%. As for RFLPSPVVI, the peptide exchange yield is > 75%.

The molecule VFQEKHHVI registered a peptide exchange yield of 50 to 75%. Still for that read-out and setting: with VYNDHSIYVW the figure was > 75%; with RYLADLPTL, > 75%; with VYDQYFITL, > 75%. For AYTLLGHEFV, the peptide exchange yield is 10 to 20%. In the case of KFLGPAEHLTF, the peptide exchange yield is > 75%. Consider TWFPKTPMLF, for which the peptide exchange yield was > 75%. Take MYINEVERL: the peptide exchange yield is > 75%. As to VYSDLHAFYY, the peptide exchange yield was > 75%. As to LYPEGLRLL, the peptide exchange yield is > 75%. As for VYVGAVNRI, the peptide exchange yield is > 75%. The molecule WYGWHFPEL showed a peptide exchange yield of 50 to 75%. The same measure, in the same setting: under SYIGLPLTL stands 50 to 75%; under TYCQNIKEF, > 75%. With RWLPQKNAAQF, the peptide exchange yield lay within 50 to 75%.

In turn, RYKQDVERF registered a peptide exchange yield of 50 to 75%. On the same count and under the same terms, with KYVKVFDKF the figure was > 75%. In turn, NYIVPDKQIF gave a peptide exchange yield of 50 to 75%. Same read-out and setting: with YYSPLRDLL the figure was > 75%; with IYHSHHPTL, 50 to 75%; with NYIYSISVF, > 75%. Same read-out and setting: under RYEGILYTI stands > 75%; under TYSKKHFRI, > 75%.

Another experiment concerns the target HLA-B*44 (human). Description: UV peptide exchange ELISA.
YEIEARNQVF: the peptide exchange yield is 50 to 75%.

Molecule EDAQGHIW showed a peptide exchange yield of 50 to 75%. On to AEMLESVIKNY, for which the peptide exchange yield is 50 to 75%. For the molecule TENRYCVQL, the peptide exchange yield was > 75%.

As for KEADIHFLI, the peptide exchange yield is > 75%. Same read-out and setting: with NEVLTYIKF the figure was > 75%; with QEMQHFLGL, 50 to 75%. With AEMLERVIKNY, the peptide exchange yield is > 75%.

On to HEFSSPSHL, for which the peptide exchange yield was 50 to 75%. Molecule TEFTTVLY registered a peptide exchange yield of 20 to 50%. For TDSIHAWTF, the peptide exchange yield was in the range of 50 to 75%.

Molecule AEVPTGVII gave a peptide exchange yield of 50 to 75%.

On to SDMVRFHLF, for which the peptide exchange yield lay in the range of 20 to 50%. Same read-out and setting: under SEPALLHSW stands 50 to 75%; under KELEATKQY, 20 to 50%; under KEGDLGGKQW, 50 to 75%. SEFMQVIF came in with a peptide exchange yield of 50 to 75%. Still for that read-out and setting: under SEKGVIQVY stands 50 to 75%; under ALNPYQYQY, 50 to 75%; under FEYDFLLQRI, > 75%.

Turning to TEDPTILRI, the peptide exchange yield fell in the range of 50 to 75%. With VEAPGPVHVYW, the peptide exchange yield is > 75%. Consider EEIEGKGSFTYF, for which the peptide exchange yield is 50 to 75%. Regarding QEQDVDLVQKY, the peptide exchange yield lay within 20 to 50%. Same read-out and setting: under MEVDPIGHVYIF stands > 75%. With NEHPSNNW, the peptide exchange yield is 50 to 75%. In turn, GECDVFKEIL showed a peptide exchange yield of 50 to 75%. The same measure, in the same setting: with EEATGQFHVY the figure was 50 to 75%.

DELFSIALY: the peptide exchange yield is > 75%. Same read-out and setting: with IEFIHPQAF the figure was > 75%; with AEIQGNINHV, 50 to 75%.

Molecule EEVNYINTF gave a peptide exchange yield of 50 to 75%.

EEGRVYLF registered a peptide exchange yield of 50 to 75%. On to AEDEPAAAHL, for which the peptide exchange yield fell in the range of 20 to 50%. On to SENLFFASF, for which the peptide exchange yield is > 75%. Still for that read-out and setting: with KEVDPAGHSY the figure was 20 to 50%; with GEIIMQNNW, > 75%. On the same count and under the same terms, under AEQDMRELTY stands 50 to 75%; under SEGSEPALLHSW, 50 to 75%; under ASSSGPMRWW, 20 to 50%. For AETLSTIQI, the peptide exchange yield lay in the range of 50 to 75%. With MEVPVIKI, the peptide exchange yield lay in the range of 20 to 50%. Consider RELENCFQIQ, for which the peptide exchange yield lay within 50 to 75%.

The record behind these values is patent US20220153796A1.
